Patent publication US20140161821A1, “TREATMENT WITH ANTI-PCSK9 ANTIBODIES” (PFIZER INC., priority 2011, published 2014)

Experiments:
[1] = PK study, single bolus i.v. injection in cynomolgus monkeys, total antibody concentration; assay type: in vivo
[2] = Example 2 clinical study, single escalating IV doses: pharmacokinetics (NCA); assay type: in vivo, human
Method: The subjects, investigator, and site personnel (except site personnel responsible for drug preparation) were blinded to treatment assignments, as was the CRO designee; while the Sponsor clinical research team was unblinded. The study was conducted in 6 planned cohorts of 8 subjects per cohort in an effort to seek a maximum tolerated dose or MTD (total of approximately 48 subjects). […] Doses were administered following an overnight fast as an intravenous infusion over 60 minutes. […] Infusions will be administered as a single infusion over 60 minutes. […]
Drug was prepared by qualified unblinded site personnel and dispensed in a blinded fashion to the patient and immediate study staff.
In addition, single PK samples were obtained on Days 4, 7, 14, 21, 28 and additional PK follow-up visit (if applicable). One sample was drawn at each time point.

[3] = target: T1, PCSK9 (Homo sapiens, UniProt Q8NBP7); assay: Example 6 clinical study, IV doses every 4 weeks on stable statin: lipids; assay type: in vivo; conditions: for LDL-C lowering, % below baseline: by Day 29 (FIG. 15)
T1 construct: PCSK9 antagonist antibody that antagonizes circulating PCSK9; endogenous in cells; host or cells: human subjects in clinical trials (in vivo, circulating PCSK9)
Method: This study was a randomized, multi center, double blind, placebo control, parallel designed trial with a 3 week screening period, 12 week treatment period and 8 week follow up period.
Subjects enrolled in the study met all of the following criteria: men and women subjects greater than equal to age of 18; body mass index of 18.5 to 40 kg/m^2; total body weight greater than 50 kg (110 lbs) and less than 150 kg (330 lbs); on a stable daily dose of a statin, defined as atorvastatin 40 or 80 mg, rosuvastatin 20 or 40 mg or simvastatin 40 or 80 mg for a minimum of 45 days prior to Day 1; lipids meet the following criteria at two qualifying visits (screening and Day −7): fasting LDL-C greater than or equal to 100 mg/dL, ;
The pre-specified primary efficacy endpoint was the percentage change from baseline of LDL-C at Day 85 analyzed using an ANCOVA model. The final ANCOVA model contained terms for baseline LDL-C and treatment. To preserve the overall type I error rate at a level of 0.05 for the primary endpoint analysis, a Haybittle-Peto, boundary with 0.001 alpha spent was employed.
The LDL-C data were subsequently analyzed using mixed model repeated measures to estimate both the treatment by time and empirical dose-response profiles.

[4] = Example 6 clinical study: safety and immunogenicity; assay type: in vivo, human; conditions: IV every 4 weeks, stable daily statin
Method: Subjects were seen periodically in the clinic for safety assessments and collection of blood for safety labs, lipid profiles, PK, PD, and immunogenicity samples. Telephone contacts were made prior to each visit to remind them of the 10-hour fasting requirements, during screening and on Day 3 to assess adverse events and document the contact in the subject's source document. […] Infusion rates were carefully controlled by an infusion device per protocol. Infusions were administered as a single infusion over approximately 60 minutes.

[5] = IV every 4 weeks, stable daily statin

T1 sequence (Q8NBP7 153-692): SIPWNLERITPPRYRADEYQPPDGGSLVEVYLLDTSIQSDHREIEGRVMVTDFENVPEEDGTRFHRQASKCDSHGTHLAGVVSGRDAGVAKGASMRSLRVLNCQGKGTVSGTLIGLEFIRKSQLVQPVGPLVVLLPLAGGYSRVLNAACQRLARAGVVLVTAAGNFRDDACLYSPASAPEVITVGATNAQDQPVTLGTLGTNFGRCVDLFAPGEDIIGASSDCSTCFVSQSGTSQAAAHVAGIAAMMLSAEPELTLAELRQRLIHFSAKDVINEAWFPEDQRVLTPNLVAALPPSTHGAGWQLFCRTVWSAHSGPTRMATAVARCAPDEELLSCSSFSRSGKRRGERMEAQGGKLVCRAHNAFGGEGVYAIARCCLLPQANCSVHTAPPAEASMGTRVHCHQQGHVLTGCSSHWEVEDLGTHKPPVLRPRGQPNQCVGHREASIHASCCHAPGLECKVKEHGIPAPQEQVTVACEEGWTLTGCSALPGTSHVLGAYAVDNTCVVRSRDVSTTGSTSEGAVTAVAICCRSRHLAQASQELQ
T1 sequence (Q8NBP7 31-152 partner limits assumed): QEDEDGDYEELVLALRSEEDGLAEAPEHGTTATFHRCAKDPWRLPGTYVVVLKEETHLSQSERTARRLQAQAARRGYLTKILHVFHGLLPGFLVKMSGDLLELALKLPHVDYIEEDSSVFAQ

B1: L1L3: humanized (<5% murine residues) monoclonal PCSK9 antagonist antibody that binds to secreted PCSK9; VH SEQ ID NO: 11, VL SEQ ID NO: 12 (antibody, V domains shown)
VH: QVQLVQSGAEVKKPGASVKVSCKASGYTFTSYYMHWVRQAPGQGLEWMGEISPFGGRTNYNEKFKSRVTMTRDTSTSTVYMELSSLRSEDTAVYYCARERPLYASDLWGQGTTVTVSS
VL: DIQMTQSPSSLSASVGDRVTITCRASQGISSALAWYQQKPGKAPKLLIYSASYRYTGVPSRFSGSGSGTDFTFTISSLQPEDIATYYCQQRYSLWRTFGQGTKLEIK
modifications: heavy chain variable region; light chain variable region
- Estimated β-phase half-life ([1]; single i.v. 0.1 mg/kg): 16.1 h
- Estimated β-phase half-life ([1]; single i.v. 1.0 mg/kg): 45.8 h
- Estimated β-phase half-life ([1]; single i.v. 3.0 mg/kg): 55.9 h
- Estimated β-phase half-life ([1]; single i.v. 10.0 mg/kg): 83.8 h
- Estimated β-phase half-life ([1]; single i.v. 100.0 mg/kg): 126 h
- AUC(0-∞) ([2]; single IV 0.3 mg/kg, mean): 34997.88 ng·days/mL
- Cl ([2]; single IV 0.3 mg/kg, mean): 8.70 mL/day/kg
- Cmax ([2]; single IV 0.3 mg/kg, mean): 10.31967 µg/mL
- Half-life ([2]; single IV 0.3 mg/kg, mean): 65.8 h
- Vss ([2]; single IV 0.3 mg/kg, mean): 0.03177 L/kg
- AUC(0-∞) ([2]; single IV 0.3 mg/kg, median): 33748.15 ng·days/mL
- Cl ([2]; single IV 0.3 mg/kg, median): 8.92 mL/day/kg
- Cmax ([2]; single IV 0.3 mg/kg, median): 10.5375 µg/mL
- Half-life ([2]; single IV 0.3 mg/kg, median): 65 h
- Vss ([2]; single IV 0.3 mg/kg, median): 0.03074 L/kg
- AUC(0-∞) ([2]; single IV 1 mg/kg, mean): 156399.94 ng·days/mL
- Cl ([2]; single IV 1 mg/kg, mean): 6.58 mL/day/kg
- Cmax ([2]; single IV 1 mg/kg, mean): 29.25183 µg/mL
- Half-life ([2]; single IV 1 mg/kg, mean): 115 h
- Vss ([2]; single IV 1 mg/kg, mean): 0.04159 L/kg
- AUC(0-∞) ([2]; single IV 1 mg/kg, median): 166736.58 ng·days/mL
- Cl ([2]; single IV 1 mg/kg, median): 6.00 mL/day/kg
- Cmax ([2]; single IV 1 mg/kg, median): 28.2315 µg/mL
- Half-life ([2]; single IV 1 mg/kg, median): 114 h
- Vss ([2]; single IV 1 mg/kg, median): 0.04234 L/kg
- AUC(0-∞) ([2]; single IV 3 mg/kg, mean): 709485.10 ng·days/mL
- Cl ([2]; single IV 3 mg/kg, mean): 4.54 mL/day/kg
- Cmax ([2]; single IV 3 mg/kg, mean): 96.7115 µg/mL
- Half-life ([2]; single IV 3 mg/kg, mean): 210 h
- Vss ([2]; single IV 3 mg/kg, mean): 0.04906 L/kg
- AUC(0-∞) ([2]; single IV 3 mg/kg, median): 728278.54 ng·days/mL
- Cl ([2]; single IV 3 mg/kg, median): 4.12 mL/day/kg
- Cmax ([2]; single IV 3 mg/kg, median): 100.6205 µg/mL
- Half-life ([2]; single IV 3 mg/kg, median): 194 h
- Vss ([2]; single IV 3 mg/kg, median): 0.04894 L/kg
- AUC(0-∞) ([2]; single IV 6 mg/kg, mean): 1446945.71 ng·days/mL
- Cl ([2]; single IV 6 mg/kg, mean): 4.33 mL/day/kg
- Cmax ([2]; single IV 6 mg/kg, mean): 175.85433 µg/mL
- Half-life ([2]; single IV 6 mg/kg, mean): 201 h
- Vss ([2]; single IV 6 mg/kg, mean): 0.06045 L/kg
- AUC(0-∞) ([2]; single IV 6 mg/kg, median): 1289916.44 ng·days/mL
- Cl ([2]; single IV 6 mg/kg, median): 4.65 mL/day/kg
- Cmax ([2]; single IV 6 mg/kg, median): 177.485 µg/mL
- Half-life ([2]; single IV 6 mg/kg, median): 186 h
- Vss ([2]; single IV 6 mg/kg, median): 0.06133 L/kg
- AUC(0-∞) ([2]; single IV 12 mg/kg, mean): 3768691.17 ng·days/mL
- Cl ([2]; single IV 12 mg/kg, mean): 3.28 mL/day/kg
- Cmax ([2]; single IV 12 mg/kg, mean): 353.96017 µg/mL
- Half-life ([2]; single IV 12 mg/kg, mean): 492.7 h
- Vss ([2]; single IV 12 mg/kg, mean): 0.07225 L/kg
- AUC(0-∞) ([2]; single IV 12 mg/kg, median): 3599992.39 ng·days/mL
- Cl ([2]; single IV 12 mg/kg, median): 3.36 mL/day/kg
- Cmax ([2]; single IV 12 mg/kg, median): 357.671 µg/mL
- Half-life ([2]; single IV 12 mg/kg, median): 293.8 h
- Vss ([2]; single IV 12 mg/kg, median): 0.05752 L/kg
- AUC(0-∞) ([2]; single IV 18 mg/kg, mean): 4812012.99 ng·days/mL
- Cl ([2]; single IV 18 mg/kg, mean): 3.85 mL/day/kg
- Cmax ([2]; single IV 18 mg/kg, mean): 532.44917 µg/mL
- Half-life ([2]; single IV 18 mg/kg, mean): 311.3 h
- Vss ([2]; single IV 18 mg/kg, mean): 0.06546 L/kg
- AUC(0-∞) ([2]; single IV 18 mg/kg, median): 4857618.28 ng·days/mL
- Cl ([2]; single IV 18 mg/kg, median): 3.71 mL/day/kg
- Cmax ([2]; single IV 18 mg/kg, median): 560.4635 µg/mL
- Half-life ([2]; single IV 18 mg/kg, median): 282.2 h
- Vss ([2]; single IV 18 mg/kg, median): 0.06083 L/kg
- LDL-C lowering ([3]; 3 mg/kg and 6 mg/kg dosing regimens, persisted for 28 days (FIG. 16)): greater than 30%
- LDL-C lowering, % below baseline ([3]; 3 mg/kg dosing regimen, stable daily statin): about 50%
- LDL-C lowering, % below baseline ([3]; 6 mg/kg dosing regimen, stable daily statin): about 65%
- Effect on triglycerides [3, 5]: No effect
- Elevation of HDL [3, 5]: up to 9%
- Difference in LS means (Test-Reference) of percentage changes from baseline for LDL-C ([3]; L1L3 0.25 mg/kg vs. Placebo on Day 85, MMRM): 2.67
- Difference in LS means (Test-Reference) of percentage changes from baseline for LDL-C ([3]; L1L3 1 mg/kg vs. Placebo on Day 85, MMRM): 0.83
- Difference in LS means (Test-Reference) of percentage changes from baseline for LDL-C ([3]; L1L3 3 mg/kg vs. Placebo on Day 85, MMRM): −38.92
- Difference in LS means (Test-Reference) of percentage changes from baseline for LDL-C ([3]; L1L3 6 mg/kg vs. Placebo on Day 85, MMRM): −50.14
- Anti-drug antibodies (ADA) [4]: No subject had positive ADA
- Safety and tolerability [4]: generally safe and well-tolerated
- Changes in LFTs, CK, ECGs, and BP ([4]; in most cases considered not related to treatment): transient, mild in nature
